In the experiment the target is taxol-stabilized microtubules polymerized in Xenopus egg extract (Xenopus (endogenous in Xenopus egg extract)). In words: co-sedimentation.

On to “X-p21-activated kinase (PAK)5, endogenous (natural protein)”, for which the percent bound was less than 70%.

The values are drawn from PMC2150914.
